In article PMC8041747:

Biological target: full-length 13-lined ground squirrel TRPV1 (13-lined ground squirrel (Ictidomys tridecemlineatus))
Experiment: cryo-EM structure; purified sqTRPV1 in 150 mM NaCl, 20 mM Tris pH 8.0, 1 mM βME, 0.01% GDN; apo, with 50 μM RTX or with 300 μM capsaicin

**Q.** For “full-length 13-lined ground squirrel TRPV1 (natural protein)”, which stoichiometry N is on record?
**A.** Its stoichiometry N is 4 subunits.
